From publication PMC8899190 (2022)

Key:
Test in all cases: BLI
[1] = target: T1, Avi-tagged, biotinylated h14-3-3ß WT (human, UniProt P31946 1-239, biotin on the N-terminal Avi tag)
T1 chain: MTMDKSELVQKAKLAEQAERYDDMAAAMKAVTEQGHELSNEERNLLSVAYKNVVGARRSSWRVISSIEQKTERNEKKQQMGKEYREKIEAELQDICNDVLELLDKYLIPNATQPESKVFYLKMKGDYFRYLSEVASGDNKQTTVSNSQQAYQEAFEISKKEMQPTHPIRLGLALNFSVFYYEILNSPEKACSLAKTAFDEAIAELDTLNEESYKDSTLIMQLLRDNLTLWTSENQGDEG

[2] = target: T2, Avi-tagged, biotinylated h14-3-3ß_(nY213) (human, UniProt P31946 1-246, 3-nitrotyrosine at 213; biotin on the N-terminal Avi tag)
T2 chain: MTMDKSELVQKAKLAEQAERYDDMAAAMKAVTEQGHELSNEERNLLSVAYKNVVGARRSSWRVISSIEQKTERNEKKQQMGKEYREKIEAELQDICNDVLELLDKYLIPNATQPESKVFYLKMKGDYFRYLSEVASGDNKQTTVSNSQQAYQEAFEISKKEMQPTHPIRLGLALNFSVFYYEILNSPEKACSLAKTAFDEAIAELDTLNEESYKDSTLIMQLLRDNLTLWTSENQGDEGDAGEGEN

[3] = target: T3, Avi-tagged, biotinylated h14-3-3ß_(nY130) (human, UniProt P31946 1-246, 3-nitrotyrosine at 130; biotin on the N-terminal Avi tag)
T3 chain: T2 chain

- Kd [1]: 91 nM
- Kd [2]: 104 nM
- Kd [3]: 100 nM
B1: Nb-G5 (C115S) (VHH)
VHH: QVQLQESGGGLVQPGGSLRLSCAASKNIANFDSMAWYRRSPGKERDLVARLYSDGGTNYEDSVKGRFNISTDIEKNTVYLQMNNLKLEDTARYYCRADLGLFDTSEFPGQGTQVTVSS
